The values that follow are results of earlier work, collected in patent US11672857B2, “Compositions and methods for a multi-adjuvant only approach to immunoprophylaxis for preventing infections” (University of Southern California, priority 2017, dated 2023).

The subject of this data set is T cell. As to conditions: compared with non-glycosylated ovalbumin produced in E. coli.

B1: Yeast-mannosylated ovalbumin: recombinant ovalbumin mannosylated by yeast during production (Lam et al.) (protein, UniProt P01012 2-386, looked up)
Ovalbumin: GSIGAASMEFCFDVFKELKVHHANENIFYCPIAIMSALAMVYLGAKDSTRTQINKVVRFDKLPGFGDSIEAQCGTSVNVHSSLRDILNQITKPNDVYSFSLASRLYAEERYPILPEYLQCVKELYRGGLEPINFQTAADQARELINSWVESQTNGIIRNVLQPSSVDSQTAMVLVNAIVFKGLWEKAFKDEDTQAMPFRVTEQESKPVQMMYQIGLFRVASMASEKMKILELPFASGTMSMLVLLPDEVSGLEQLESIINFEKLTEWTSSNVMEERKIKVYLPRMKMEEKYNLTSVLMAMGITDVFSSSANLSGISSAESLKISQAVHAAHAEINEAGREVVGSAEAGVDAASVSEEFRADHPFLFCIKHIATNAVLFFGRCVSP
modifications: yeast mannosylation
In the case of B1, the T cell proliferation entry was “significantly greater T cell proliferation than did non-glycosylated ovalbumin produced in E. coli”.
